# Results: patent US20070116750A1, “Compositions for disrupting and inhibiting reconstitution of wound biofilm” (priority 2005, published 2007)
# Entries after “also recorded” stand apart in the source; their conditions may differ.
# B1: lactoferrin: iron-binding glycoprotein, 75,000-80,000 Daltons; in Examples 2-11 applied as Bioferrin with xylitol in gel (protein, UniProt P24627 20-708, looked up)
# Lactotransferrin: APRKNVRWCTISQPEWFKCRRWQWRMKKLGAPSITCVRRAFALECIRAIAEKKADAVTLDGGMVFEAGRDPYKLRPVAAEIYGTKESPQTHYYAVAVVKKGSNFQLDQLQGRKSCHTGLGRSAGWIIPMGILRPYLSWTESLEPLQGAVAKFFSASCVPCIDRQAYPNLCQLCKGEGENQCACSSREPYFGYSGAFKCLQDGAGDVAFVKETTVFENLPEKADRDQYELLCLNNSRAPVDAFKECHLAQVPSHAVVARSVDGKEDLIWKLLSKAQEKFGKNKSRSFQLFGSPPGQRDLLFKDSALGFLRIPSKVDSALYLGSRYLTTLKNLRETAEEVKARYTRVVWCAVGPEEQKKCQQWSQQSGQNVTCATASTTDDCIVLVLKGEADALNLDGGYIYTAGKCGLVPVLAENRKSSKHSSLDCVLRPTEGYLAVAVVKKANEGLTWNSLKDKKSCHTAVDRTAGWNIPMGLIVNQTGSCAFDEFFSQSCAPGADPKSRLCALCAGDDQGLDKCVPNSKEKYYGYTGAFRCLAEDVGDVAFVKNDTVWENTNGESTADWAKNLNREDFRLLCLDGTRKPVTEAQSCHLAVAPNHAVVSRSDRAAHVKQVLLHQQALFGKNGKNCPDKFCLFKSETKNLLFNDNTECLAKLGGRPTYEEYLGTEYVTAIANLKKCSTSPLLEACAFLTR
# Key:
# Streptococcus mutans = details: lactoferrin and iron depletion; cited from earlier work
# P. aeruginosa = details: in vitro; cited from earlier work
# chronic wound biofilm = test: Topical treatment of patients' chronic/non-healing wounds in the clinic (case reports and clinical experience); format: in vivo, human; details: for wound healing outcome: topical application with debridement and other wound care
# Excerpt: The composition is preferably applied following wound debridement. Although biofilm bacteria cannot be completely eradicated from the wound area by debridement, decreasing biofilm mass and providing increased exposure of the debrided tissue and remaining biofilm bacteria to the inventive compositions increases wound healing. […] It is therefore of benefit to debride the slough from the wound as completely as possible. Debridement can be performed by surgical, mechanical, autolytic, enzymatic, or a combination of means known to those of skill in the art of wound care. Furthermore, standard gauze dressings to pack or cover the wound will preferably be avoided, since those dressings may enhance biofilm formation or reconstitution in the wound. If used, such dressings may, however, be coated or impregnated with a composition of the present invention to decrease the biofilm-enhancing properties of a gauze dressing.
# Topical wound care compositions may comprise about 2 to about 200 mg of MDPP or MDPP-A per cubic centimeter of total composition. In one embodiment, a composition comprises about 20 to about 200 mg of MDPP or MDPP-A, provided as Bioferrino®1000 or Bioferrin®2000, per cubic centimeter of total composition and about 1 to about 50, or in some embodiments about 5 to about 20, percent (w/v) xylitol. In one embodiment, this composition may be admixed into a methylcellulose/gelatin gel. This composition can be applied, in an amount of about ½ to about 5 cc of protein isolate/xylitol composition to each one square centimeter of wound area, to a freshly debrided chronic wound after the slough has been removed.
# Xylitol (one-, two-, three-, four-, and five-xypentane hydro from Spectrum Chemical) comprised the second active ingredient, and was present at a concentration of 5% by weight of the mixture. The base gel of the composition comprised methylcellulose (0.023 gm/cc), gelatin (0.013 gm/cc) and sterile water.
# oral ulcers = details: hamsters; cited from earlier work
# [1] = individual patient case reports
molecule,measurement,setting,value
B1,effect on biofilm formation,Streptococcus mutans,stimulate biofilm formation
same,effect on biofilm formation,P. aeruginosa,block biofilm formation
same,"inhibition of biofilm reconstitution / response of wounds, clinical experience","chronic wound biofilm; chronic wounds after debridement, comparative statements",inhibits reconstitution of an existing biofilm in a chronic wound
same,slough (biofilm) in the wound bed during therapy,chronic wound biofilm; [1],no evidence of slough
same,wound healing outcome,chronic wound biofilm; [1],the wound healed; also recorded: almost completely healed
same,wound healing outcome,"chronic wound biofilm; individual patient case reports, listed as Lactoferrin",complete healing of their wound
same,time to complete healing / closure of wound,chronic wound biofilm; patients with venous leg wounds,5 weeks
same,efficacy for treating oral ulcers,oral ulcers,not effective
